Results on ten molecules are retold here after patent publication US20160311919A1.

As usually defined, the Kd is the free concentration of one partner at which half of the binding sites on the other are occupied at equilibrium, for simple one-to-one binding. Broadly, the koff is a measure of how fast the partners let go of each other. By kon is commonly meant the rate constant with which the complex forms.

For assay [1], the target named is GPNMB-V5His (recombinant human GPNMB extracellular domain with C-terminal V5-His tag) (human) (UniProt Q14956). The assay can be described thus: ELISA, coated GPNMB, Ab 333 ng/mL.
For assay [2] the target is unchanged. The experiment in a line: ELISA, coated GPNMB, Ab 37 ng/mL.
The target is the same in assay [3]. The assay can be described thus: ELISA, coated GPNMB, Ab 3 ug/mL. Background: ELISA stands for enzyme-linked immunosorbent assay.
The target is the same in assay [4]. The experiment in a line: ELISA, coated GPNMB, Ab 111 ng/mL.
For assay [5] the target is unchanged. The experiment in a line: ELISA, coated GPNMB, Ab 12.3 ng/mL.
Assay [6] shares this target. The assay can be described thus: ELISA, coated GPNMB, Ab 1 ug/mL.
Assay [7] has the same target. The assay can be described thus: SPR (Biacore), mAb on protein A, GPNMB 880 nM. A general note: In SPR one partner is held on a chip, and binding of the other changes the refractive index at the surface.

B1: 2-17 (hybridoma of Table 6) (antibody, V domains shown)
VH: QLVQSGAEVKKPGASVKVSCKASGYTFTGFYMHWVRQTPGQGLEWMGWINPNSGGTYYVQKFQGRVTMTRDTSISTVYMELSRLRSDDTAVYYCARDGYSSGEDWFDPWGQGTLVTVSS
VL: DIVMTQTPLSLSVTPGQPASISCKSSQSLLHSGGKTYLYWYLQRPGQPPQLLIYEVSNRFSGVPDRFSGSGSGTDFTLKISRVEAEDVGVYYCMQSIHLPLTFGGGTKVEIKR
Consider B1, for which the Avg OD in assay [1] was determined as 0.01 OD; in assay [2], 0.008 OD; in assay [3], 0.053 OD; in assay [4], 0.009 OD; in assay [5], 0.011 OD; in assay [6], 0.019 OD.

B2: Mab1.2.2 (antibody, human IgG2, V domains shown)
VH: ITLKESGPTLVKPTQTLTLTCTFSGFSLSAGGVGVGWIRQPPGKALEWLALIYWNDDKRYSPSLRSRLTITKDTSKNQVVLTITNMDPVDTATYYCAHSHYDYDWGSYFDYWGQGTLVTVSS
VL: DIVMTQTPLSLPVTPGEPASISCRSSQSLLDSDDGNTYLDWYLQKPGQSPQLLIYTLSYRASGVPDRFSGSGSGTDFTLNISRVEAEDVGVYYCMQRIEFPITFGQGTRLEIKR
As for B2, the Kd in assay [7] is 96 nM. In assay [7], the koff is 0.00089 s⁻¹. Also, the kon in assay [7] was 9260 M⁻¹ s⁻¹. For the same molecule, the Avg OD in assay [1] is 0.356 OD; in assay [2], 0.094 OD; in assay [3], 0.763 OD; in assay [4], 0.199 OD; in assay [5], 0.049 OD; in assay [6] it was 0.499 OD.

B3: 2-16 (hybridoma of Table 6) (antibody, V domains shown)
VH: QVQLVESGGGLVKPGGSLRLSCAASGFTFSDYYMTWIRQAPGKGLEWVSYISISGSITHYADSVKGRFTMSRDNAKNSLYLQMNSLRAEDTAVYYCARDGAAAGTDAFDIWGHGTKVTVSS
VL: EIVMTQSPATLSVSPGDRATLSCRASQNVSSNLAWYQQKPGQAPRLLIFGASTRATGIPARFSGSGSGTEFTLTISSLQSEDFAVYYCQQYHYWPTFGPGTKVDIKR
Consider B3, for which the Avg OD in assay [1] came out at 0.068 OD; in assay [2], 0.017 OD; in assay [3] it was 0.359 OD; in assay [4] it was 0.032 OD; in assay [5] it was 0.011 OD; in assay [6] it was 0.173 OD.

B4: 1.7.3 (antibody, V domains shown)
VH: QVQLQESGPGLVKPSQTLSLTCTVSGGSISSANYYWTWIRQHPGKGLEWIGYIYYSGSTYCNPSLKSRVIISVDTSKNQFSLKLSSVTAADTAVYYCARGYNWNYFDYWGQGTLVTVSS
VL: DIVMTQSPATLSVSPGERATLSCRASQSVSSNLAWYQERPGQAPRLLIYGASTRATGIPARFSGSGSGTEFTLTISSLQSEDFAVYYCQQYNKWPPWTFGQGTKVEIER
As to B4, in assay [7], the dissociation constant (Kd) worked out at 121 nM. In addition, in assay [7], the koff stood at 0.00117 s⁻¹. In addition, the kon in assay [7] was 9650 M⁻¹ s⁻¹. The Avg OD in assay [1] was found to be 0.76 OD; in assay [2], 0.239 OD; in assay [3], 1 OD; in assay [4], 0.451 OD; in assay [5], 0.094 OD; in assay [6], 0.871 OD.

B5: Mab1.7.1 (antibody, human IgG2, V domains shown)
VH: QVQLQESGPGLVKPSQTLSLTCTVSGGSISSANYYWTWIRQHPGKGLEWIGYIYYSGSTYCNPSLKSRVIISVDTSKNQFSLKLSSVTAADTAVYYCARGYNWNYFDYWGQGTLVTVSS
VL: DIVMTQSPATLSVSPGERATLSCRASQSVSSNLAWYQERPGQAPRLLIYGASTRATGIPARFSGSGSGTEFTLTISSLQSEDFAVYYCQQYNKWPPWTFGQGTKVEIER
Take B5: in assay [7], the Kd stood at 122 nM, the koff came to 0.00144 s⁻¹ and the kon was determined as 11800 M⁻¹ s⁻¹.

B6: 2-22 (hybridoma of Table 6) (antibody, V domains shown)
VH: QVQLEQSGPGLVKPSQNLSLTCTVSGGSISSGGYFWSWIRQHPGKGLEWIGYIYYSGNTYYNPSLKSRVTISVDTSKNQFSLKLSSVTAADTAVYYCARDYYYDTSGFSYRYDWYYGMDVWGQGTTVTVSS
VL: DIQLTQSPSSLSASVGDRVTITCRASQGIRNDLGWYQQKPGKAPKRLIYAASSLQNGVPSRFSGSGSGTEFTLTISSLQPEDFATYYCLQHNTYPAFGQGTKVEIKR
As for B6, the Avg OD in assay [1] came to 0.538 OD; in assay [2], 0.171 OD; in assay [3] it was 0.714 OD; in assay [4] it was 0.355 OD; in assay [5], 0.068 OD; in assay [6], 0.707 OD.

B7: Mab1.10.2 (antibody, human IgG2, V domains shown)
VH: QVQLQESGPGLVKPSETLSLTCTVSGDSISNYYWSWIRQPPGKGLEWIGYFYYSGSTNYNPSLKSRVTISVDTSKNQFSLKLSSVTAADTAVYYCARDRGWADYWGQGTLVTVSS
VL: EIVLTQSPGTLSLSPGERATLSCRTSQSISSSYLAWYQQKPGQVPRLLIYGASSRATGIPDRFSGSGSGTDFTLTISRLEPEDFAVYYCQQYGSSITFGQGTRLEIKR
As for B7, in assay [7], the Kd is 118 nM, the koff was found to be 0.000466 s⁻¹ and the kon turned out to be 3960 M⁻¹ s⁻¹.

B8: GPNMB antibody (1.10.1) (antibody, V domains shown)
VH: QVQLQESGPGLVKPSETLSLTCTVSGDSISNYYWSWIRQPPGKGLEWIGYFYYSGSTNYNPSLKSRVTISVDTSKNQFSLKLSSVTAADTAVYYCARDRGWADYWGQGTLVTVSS
VL: EIVLTQSPGTLSLSPGERATLSCRTSQSISSSYLAWYQQKPGQVPRLLIYGASSRATGIPDRFSGSGSGTDFTLTISRLEPEDFAVYYCQQYGSSITFGQGTRLEIKR
In the case of B8, in assay [7], the Kd turned out to be 209 nM, the koff amounted to 0.000885 s⁻¹ and the kon stood at 4240 M⁻¹ s⁻¹.

B9: 2-7 (hybridoma of Table 6) (antibody, V domains shown)
VH: QVQLEQSGGGVVQPGRSLRLSCAASGFTFNNYGMHWVRQAPGKGLEWVAVIWYDGSNKYYADSVKGRFTISRDNSKNTLYLQMNSLRAEDTAVYYCAKDEEYYYVSGLDYWGQGTLVTVSS
VL: LTQSPSSLSASVRDRVTITCRASQDISNYLAWYQQKPGKVPNLLIYAASTLQSGVPSRFSGSGSGTDFTLTISSLQPEDVATYYCQKYNSAPLTFGGGTKVEIKR
In the case of B9, the Avg OD worked out at 0.68 OD in assay [1]; 0.308 OD in assay [2]; 0.827 OD in assay [3]; 0.494 OD in assay [4]; 0.156 OD in assay [5]; 0.719 OD in assay [6].

B10: 2-15 (hybridoma of Table 6) (antibody, V domains shown)
VH: QVQLVESGGGVVQPGRSLRLSCAASGFTFSNYGIHWVRQAPGKGLEWVAVIWFDGRNKYYADSVKGRFTISRDNSKNTLYLQMNSLRAEDAAVYYCARDPFDYGDSFFDYWGQGTLVTVSS
VL: LTQSPSSLSASVRDRVTITCRASQDISNYLAWYQQKPGKVPNLLIYAASTLQSGVPSRFSGSGSGTDFTLTISSLQPEDVATYYCQKYNSAPLTFGGGTKVEIKR
In the case of B10, the Avg OD stood at 0.578 OD in assay [1]; 0.246 OD in assay [2]; 0.601 OD in assay [3]; 0.395 OD in assay [4]; 0.127 OD in assay [5]; 0.568 OD in assay [6].
